# Measured values from the supplement of paper PMC10567573.
# B1: ZNF263 (parent)
# chain: VPGTQVGQGGKLWDPSVQSCKEGL
# B2: TMEM175 (parent)
# chain: ALLHQAETLQPSVWFGGREHVLMF
# Variants of: B1
# Assay: protein stability index of a GFP-peptide fusion (GPS, HEK-293T) (PSI 1-6); higher = more stable
# Settings: c terminus: a fixed tail appended
# 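Also: lentivirally expressed fusions sorted by FACS into six bins by GFP to DsRed ratio, PSI derived from sequencing read proportions per bin multiplied by bin number.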
row,Variant,protein stability index
1,VPGTQVGQGGKLWDPSVQSCKEGE [L24E],5.18
2,VPGTQVGQGGKLWDPSVQSCKEGQ [L24Q],5.03
3,VPGTQVGQGGKLWDPSVQSCKEGI [L24I],4.22
4,VPGTQVGQGGKLWDPSVQSCKEGV [L24V],4.35
5,VPGTQVGQGGKLWDPSVQSCKEGC [L24C],3.9
6,VPGTQVGQGGKLWDPSVQSCKEGW [L24W],4.32
7,VPGTQVGQGGKLWDPSVQSCKEGT [L24T],4.26
8,VPGTQVGQGGKLWDPSVQSCKEGR [L24R],4.92

# Variants of: B2
# Assay: as above
# Settings: c terminus: a fixed tail appended
row,Variant,protein stability index
1,ALLHQAETLQPSIWFGGREHVLMF [V13I],2.25
2,ALLHQAETLQPSWWFGGREHVLMF [V13W],2.36
3,ALLHQAETLQPSPWFGGREHVLMF [V13P],2.16
4,ALLHQAETLQPSDWFGGREHVLMF [V13D],2.16
5,ALLHQAETLQPSLWFGGREHVLMF [V13L],2.59
6,ALLHQAETLQPSMWFGGREHVLMF [V13M],2.46
7,ALLHQAETLQPSRWFGGREHVLMF [V13R],2.02
8,ALLHQAETLQPSQWFGGREHVLMF [V13Q],3.1
9,ALLHQAETLQPSVWDGGREHVLMF [F15D],2.29
10,ALLHQAETLQPSVWCGGREHVLMF [F15C],2.5
11,ALLHQAETLQPSVWHGGREHVLMF [F15H],2.12
12,FLLHQAETLQPSVWFGGREHVLMF [A1F],2.59
13,RLLHQAETLQPSVWFGGREHVLMF [A1R],1.81
14,YLLHQAETLQPSVWFGGREHVLMF [A1Y],2.71
15,ALLEQAETLQPSVWFGGREHVLMF [H4E],1.56
16,ALLQQAETLQPSVWFGGREHVLMF [H4Q],1.73
17,ALLKQAETLQPSVWFGGREHVLMF [H4K],1.52
18,ALLHQAETLQPSVWFGGREHPLMF [V21P],2.11
19,ALLHQAETLQPSVWFGGREHCLMF [V21C],2.73
20,ALLHQAETLQPSVWFGGREHHLMF [V21H],2.89
21,ALLHQAETLQPSVWFGGREHSLMF [V21S],1.52
22,ALLHQAETLQPSVWFGGWEHVLMF [R18W],3.12

row,Variant,protein stability index
1,ALLHQAETLQPSVWFGGDEHVLMF [R18D],1.93
2,ALLHQAETLQPSVWFGGSEHVLMF [R18S],1.15
3,ALLHQAETLQPSVWFGGPEHVLMF [R18P],1.71
4,ALLHQAEWLQPSVWFGGREHVLMF [T8W],1.69
5,ALLHQAECLQPSVWFGGREHVLMF [T8C],2.94
6,ALLHQAETLQPNVWFGGREHVLMF [S12N],1
7,ALLHQAETLQPTVWFGGREHVLMF [S12T],2.65
8,ALLHQAETLQPVVWFGGREHVLMF [S12V],3.21
9,ALLHQAETLQPMVWFGGREHVLMF [S12M],1.75
10,ALLHQAETLQPSVWFGGRAHVLMF [E19A],2.27
11,ALLHQAETLQPSVWFGGRLHVLMF [E19L],2.74
12,ALLHQAETLQPSVWFGGRSHVLMF [E19S],2.2
13,ALLHQAETLQPSVWFGGREDVLMF [H20D],1.29
14,ALLHQAETLQPSVWFGGRESVLMF [H20S],2.21
15,ALLHQAETLQPSVWFGGREGVLMF [H20G],1.74
16,ALLHQAETLQPSVWFGGREEVLMF [H20E],1.6
17,ALLHQAETLQPSVWFGGREMVLMF [H20M],3.07
18,ALPHQAETLQPSVWFGGREHVLMF [L3P],1.61
19,ALDHQAETLQPSVWFGGREHVLMF [L3D],1.87
20,ALEHQAETLQPSVWFGGREHVLMF [L3E],1.94
21,ALNHQAETLQPSVWFGGREHVLMF [L3N],1.04
22,ALLHDAETLQPSVWFGGREHVLMF [Q5D],2.03

row,Variant,protein stability index
1,ALLHHAETLQPSVWFGGREHVLMF [Q5H],2.37
2,ALLHMAETLQPSVWFGGREHVLMF [Q5M],3.42
3,ALLHVAETLQPSVWFGGREHVLMF [Q5V],3.06
4,ALLHTAETLQPSVWFGGREHVLMF [Q5T],2.94
5,ALLHQAETLQPSVWFGGREHVLDF [M23D],1.04
6,ALLHQAETLQPSVWFGGREHVLFF [M23F],1.67
7,ALLHQAETLQRSVWFGGREHVLMF [P11R],4.75
8,ALLHQAETLQLSVWFGGREHVLMF [P11L],1.82
9,ALLHQAETLQPSVWFLGREHVLMF [G16L],2.28
10,ALLHQAETLQPSVWFPGREHVLMF [G16P],1.14
11,ALLHQAETLQPSVWFKGREHVLMF [G16K],2.17
12,ALLHQAETFQPSVWFGGREHVLMF [L9F],2.49
13,ALLHQADTLQPSVWFGGREHVLMF [E7D],1
14,ALLHQAKTLQPSVWFGGREHVLMF [E7K],3.58
15,ALLHQAETLQPSVQFGGREHVLMF [W14Q],2.24
16,ALLHQAETLQPSVYFGGREHVLMF [W14Y],2.11
17,ALLHQAETLQPSVAFGGREHVLMF [W14A],1.66
18,ALLHQAETLQPSVFFGGREHVLMF [W14F],2.48
19,ALLHQAETLNPSVWFGGREHVLMF [Q10N],3.13
20,ALLHQAETLRPSVWFGGREHVLMF [Q10R],2.36
21,ALLHQAETLHPSVWFGGREHVLMF [Q10H],1.99
22,ALLHQAETLMPSVWFGGREHVLMF [Q10M],1.96

row,Variant,protein stability index
1,ALLHQAETLDPSVWFGGREHVLMF [Q10D],2.35
2,ALLHQQETLQPSVWFGGREHVLMF [A6Q],1.87
3,ATLHQAETLQPSVWFGGREHVLMF [L2T],1.53
4,APLHQAETLQPSVWFGGREHVLMF [L2P],1.87
5,AGLHQAETLQPSVWFGGREHVLMF [L2G],1.2
6,ALLHQAETLQPSVWFGRREHVLMF [G17R],3.53
7,ALLHQAETLQPSVWFGWREHVLMF [G17W],1.67
8,ALLHQAETLQPSVWFGTREHVLMF [G17T],2.68
9,ALLHQAETLQPSVWFGPREHVLMF [G17P],1.05
10,ALLHQAETLQPSVWFGAREHVLMF [G17A],3.03
11,ALLHQAETLQPSVWFGVREHVLMF [G17V],2.62
12,ALLHQAETLQPSVWFGGREHVLMT [F24T],2
13,ALLHQAETLQPSVWFGGREHVLMW [F24W],2.13
14,ALLHQAETLQPSVWFGGREHVLMS [F24S],2.56
15,ALLHQAETLQPSVWFGGREHVLME [F24E],2.15
16,ALLHQAETLQPSVWFGGREHVFMF [L22F],2.44
17,ALLHQAETLQPSVWFGGREHVRMF [L22R],1.93
18,ALLHQAETLQPSVWFGGREHVMMF [L22M],2.03
19,ALLHQAETLQPSVWFGGREHVYMF [L22Y],2.94
20,ALLHQAETLQPSVWFGGREHVQMF [L22Q],1.9
